Reference: US20200157197A1 (VENOMYX, published 2020)

Biological target: T1, Cobrotoxin (N. Atra, Miami Serpentarium) (Naja atra, UniProt P60770 22-83)
T1 sequence: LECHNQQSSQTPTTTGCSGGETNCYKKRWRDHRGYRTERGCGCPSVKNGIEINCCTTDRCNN
Assay: panning, phage ELISA and purified-VHH ELISA on coated toxin

B1: Anti-cobrotoxin VHH (B9) (VHH)
VHH: QVQLQESGGGLAQAGGSLRLSCSASRNIFRVYGWYRQAPGKQREWVASITRDDSTAYADSVKGRFTISRDSAKNTMYLQMSSLRLEDTSTYYCAAQSISGTIQWGQGTQVTVSS
notes: also called VHH candidate against cobrotoxin
B1: binds.
